Targets include DLG5_2, Q8TDM6; IL16_2, Q14005; Inadl_7, Q8NI35; MAGI1_6, Q96QZ7; MAGI3_4, Q5TCQ9; MAGIX, Q9H6Y5; PARD3B_3, Q8TEW8; PARD3_3, Q8TEW0; RIMS1, Q86UR5; SCRIB_4, Q14160; TJP1_2, Q07157.
Holding throughout (assay): holdup assay
Common to all, as to design: key: below the threshold = too weak to quantify, mostly under pKd 3.1 to 4
Details in all cases: plain residues with an end cap or a label only (N-terminal biotin on a linker: ttds)

For another assay, the target named is T1, GRIP1_1, Q9Y3R0.
T1 sequence (Q9Y3R0 48-146, limits assumed, looked up): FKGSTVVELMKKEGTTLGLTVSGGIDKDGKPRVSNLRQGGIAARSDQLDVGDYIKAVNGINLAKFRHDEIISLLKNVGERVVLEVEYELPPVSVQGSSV

The target in the next assay is T2, INTU, Q9ULD6.
T2 sequence (Q9ULD6 180-273, limits assumed, looked up): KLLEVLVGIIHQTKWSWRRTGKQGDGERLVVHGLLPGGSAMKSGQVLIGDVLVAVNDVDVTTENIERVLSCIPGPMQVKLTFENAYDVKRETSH

The target of the next assay is T3, MAGI2_1, Q86UL8.
T3 sequence (Q86UL8 12-111, limits assumed, looked up): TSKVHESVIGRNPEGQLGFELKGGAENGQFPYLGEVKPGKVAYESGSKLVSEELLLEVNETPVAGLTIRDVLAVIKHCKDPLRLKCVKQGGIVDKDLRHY

The next assay has as its target T4, MPDZ_10, O75970.
T4 sequence (O75970 1624-1722, limits assumed, looked up): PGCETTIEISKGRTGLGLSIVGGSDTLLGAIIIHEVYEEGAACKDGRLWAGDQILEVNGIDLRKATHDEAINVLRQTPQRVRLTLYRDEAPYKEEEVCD

Another assay deals with T5, MPDZ_13, O75970.
T5 sequence (O75970 1982-2070, limits assumed, looked up): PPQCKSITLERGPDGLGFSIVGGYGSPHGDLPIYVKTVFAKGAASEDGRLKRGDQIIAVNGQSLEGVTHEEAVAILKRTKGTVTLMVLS

In another assay the target is T6, MPP1, Q00013.
T6 sequence (Q00013 66-162, limits assumed, looked up): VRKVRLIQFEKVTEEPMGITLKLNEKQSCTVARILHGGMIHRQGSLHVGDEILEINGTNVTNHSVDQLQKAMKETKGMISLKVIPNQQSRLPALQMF

The next assay addresses T7, NHERF3_2, Q5T2W1.
T7 sequence (Q5T2W1 129-225, limits assumed, looked up): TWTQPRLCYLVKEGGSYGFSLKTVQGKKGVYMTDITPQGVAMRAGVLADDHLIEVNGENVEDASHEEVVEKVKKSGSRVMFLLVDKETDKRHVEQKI

Another assay deals with T8, PDZD2_6, O15018.
T8 sequence (O15018 2745-2839, limits assumed, looked up): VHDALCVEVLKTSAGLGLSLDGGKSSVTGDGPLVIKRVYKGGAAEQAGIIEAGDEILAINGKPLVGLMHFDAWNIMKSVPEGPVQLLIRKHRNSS

For a further assay, the target named is T9, PDZD7_2, Q9H5P4.
T9 sequence (Q9H5P4 205-303, limits assumed, looked up): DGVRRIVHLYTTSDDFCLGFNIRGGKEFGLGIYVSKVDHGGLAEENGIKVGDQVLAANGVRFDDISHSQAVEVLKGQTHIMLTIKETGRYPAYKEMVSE

The target of the next assay is T10, PTPN13_5, Q12923.
T10 sequence (Q12923 1877-1975, limits assumed, looked up): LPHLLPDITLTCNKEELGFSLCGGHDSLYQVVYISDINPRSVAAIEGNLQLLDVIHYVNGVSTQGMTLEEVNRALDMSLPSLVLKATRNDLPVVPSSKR

For another assay, the target named is T11, PTPN4, P29074.
T11 sequence (P29074 512-599, limits assumed, looked up): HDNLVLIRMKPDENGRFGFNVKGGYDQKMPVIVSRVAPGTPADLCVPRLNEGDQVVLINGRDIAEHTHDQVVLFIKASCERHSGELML

For a further assay, the target named is T12, SHANK3, Q9BYB0.
T12 sequence (Q9BYB0 641-750, limits assumed, looked up): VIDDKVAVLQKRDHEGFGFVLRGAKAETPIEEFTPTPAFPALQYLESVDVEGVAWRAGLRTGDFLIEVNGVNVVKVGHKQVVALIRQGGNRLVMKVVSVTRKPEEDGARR

A further assay addresses T13, SHROOM2, Q13796.
T13 sequence (Q13796 21-118, limits assumed, looked up): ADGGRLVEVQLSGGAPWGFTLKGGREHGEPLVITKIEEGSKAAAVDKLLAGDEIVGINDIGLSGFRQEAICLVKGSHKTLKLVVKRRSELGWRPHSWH

Here are results for two molecules from article PMC9482650, “Quantitative fragmentomics allow affinity mapping of interactomes” (Nature Communications, 2022).

Chain of TJP1_2, Q07157 (Q07157 181-274): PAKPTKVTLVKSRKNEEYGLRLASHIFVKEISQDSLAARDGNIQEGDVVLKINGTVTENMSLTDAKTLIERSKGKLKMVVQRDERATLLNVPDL
Chain of RIMS1, Q86UR5 (Q86UR5 584-692): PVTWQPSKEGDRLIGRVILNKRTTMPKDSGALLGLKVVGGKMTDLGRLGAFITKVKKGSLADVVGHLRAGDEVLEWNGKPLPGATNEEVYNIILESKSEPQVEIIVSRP
Chain of SCRIB_4, Q14160 (Q14160 1095-1204): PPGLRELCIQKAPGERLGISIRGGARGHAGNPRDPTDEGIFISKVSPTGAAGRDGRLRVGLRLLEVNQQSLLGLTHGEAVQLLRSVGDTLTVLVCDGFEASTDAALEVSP
Chain of PARD3_3, Q8TEW0 (Q8TEW0 582-685): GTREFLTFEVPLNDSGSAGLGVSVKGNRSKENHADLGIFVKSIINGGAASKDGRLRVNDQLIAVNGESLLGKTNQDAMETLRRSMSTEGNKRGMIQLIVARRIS
Chain of DLG5_2, Q8TDM6 (Q8TDM6 714-800): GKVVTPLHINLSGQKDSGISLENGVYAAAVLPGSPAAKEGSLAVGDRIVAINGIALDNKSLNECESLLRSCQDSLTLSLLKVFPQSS
Chain of PARD3B_3, Q8TEW8 (Q8TEW8 490-594): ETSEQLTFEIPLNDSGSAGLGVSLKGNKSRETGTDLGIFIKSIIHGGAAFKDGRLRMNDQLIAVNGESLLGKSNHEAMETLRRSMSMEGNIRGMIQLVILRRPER
Chain of Inadl_7, Q8NI35 (Q8NI35 1219-1332): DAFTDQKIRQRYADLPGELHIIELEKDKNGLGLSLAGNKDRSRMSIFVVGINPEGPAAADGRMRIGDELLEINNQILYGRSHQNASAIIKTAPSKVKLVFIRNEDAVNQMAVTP
Chain of MAGI3_4, Q5TCQ9 (Q5TCQ9 716-815): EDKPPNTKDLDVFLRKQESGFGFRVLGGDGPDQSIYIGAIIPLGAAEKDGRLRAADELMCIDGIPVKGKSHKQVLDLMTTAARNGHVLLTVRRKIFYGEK
Chain of MAGI1_6, Q96QZ7 (Q96QZ7 1146-1238): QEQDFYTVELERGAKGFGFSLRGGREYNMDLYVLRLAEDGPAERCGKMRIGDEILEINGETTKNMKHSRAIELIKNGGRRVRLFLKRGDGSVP
Chain of MAGIX, Q9H6Y5 (Q9H6Y5 118-211): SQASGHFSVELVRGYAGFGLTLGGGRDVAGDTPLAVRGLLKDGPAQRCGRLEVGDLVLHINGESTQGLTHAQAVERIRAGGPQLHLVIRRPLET
Chain of IL16_2, Q14005 (Q14005 350-450): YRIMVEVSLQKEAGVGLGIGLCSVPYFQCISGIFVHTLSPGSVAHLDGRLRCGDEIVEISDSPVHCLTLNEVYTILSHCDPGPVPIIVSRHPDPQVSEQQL

B1: ABCC4, O15439 (peptide)
chain: STLTIFETAL
As to B1, the pKd result with DLG5_2, Q8TDM6 was “below the threshold”; with GRIP1_1, Q9Y3R0, “below the threshold”; with IL16_2, Q14005, “below the threshold”; with INTU, Q9ULD6, “below the threshold”; with Inadl_7, Q8NI35, “below the threshold”; in the assay with MAGI1_6, Q96QZ7 it was 4.22. In addition, the pKd result is “below the threshold” in the assay with MAGI2_1, Q86UL8; “below the threshold” with MAGI3_4, Q5TCQ9; “below the threshold” with MAGIX, Q9H6Y5; “below the threshold” with MPDZ_10, O75970; “below the threshold” in the assay with MPDZ_13, O75970; “below the threshold” with MPP1, Q00013. In addition, the pKd with NHERF3_2, Q5T2W1 is 4.06; with PARD3B_3, Q8TEW8 it was “below the threshold”; in the assay with PARD3_3, Q8TEW0 it was 4.31; with PDZD2_6, O15018, “below the threshold”; in the assay with PDZD7_2, Q9H5P4, 4.54; with PTPN13_5, Q12923 it was “below the threshold”. The pKd was 4.97 in the assay with PTPN4, P29074; “below the threshold” with RIMS1, Q86UR5; 4.29 in the assay with SCRIB_4, Q14160; 5.54 with SHANK3, Q9BYB0; 4.44 in the assay with SHROOM2, Q13796; “below the threshold” with TJP1_2, Q07157.

B2: TJP2, Q9UDY2 (peptide)
chain: QSARYRDTEL
As for B2, the pKd result with DLG5_2, Q8TDM6 was “below the threshold”; in the assay with GRIP1_1, Q9Y3R0, “below the threshold”; with IL16_2, Q14005, “below the threshold”; with INTU, Q9ULD6, “below the threshold”; in the assay with Inadl_7, Q8NI35, “below the threshold”; with MAGI1_6, Q96QZ7 it was 4.71. Also, the pKd result in the assay with MAGI2_1, Q86UL8 was “below the threshold”; with MAGI3_4, Q5TCQ9, “below the threshold”; with MAGIX, Q9H6Y5, “below the threshold”; with MPDZ_10, O75970 it was “below the threshold”; in the assay with MPDZ_13, O75970, “below the threshold”; in the assay with MPP1, Q00013 it was “below the threshold”. Further, the pKd result with NHERF3_2, Q5T2W1 was “below the threshold”; with PARD3B_3, Q8TEW8 it was “below the threshold”; with PARD3_3, Q8TEW0 it was 3.7; with PDZD2_6, O15018, “below the threshold”; in the assay with PDZD7_2, Q9H5P4, “below the threshold”; with PTPN13_5, Q12923, “below the threshold”. Besides, the pKd was 4.48 with PTPN4, P29074; “below the threshold” with RIMS1, Q86UR5; “below the threshold” with SCRIB_4, Q14160; “below the threshold” with SHANK3, Q9BYB0; “below the threshold” with SHROOM2, Q13796; “below the threshold” with TJP1_2, Q07157.

The pKd is the Kd on a negative log10 scale, so that one unit is a factor of ten.
